Drawing on article PMC3866193, this text covers half life of the donor/acceptor heterodimer (single-exponential decay), Kd and stoichiometry N for one molecule.

Test [1] deals with Alexa Fluor 568-labeled GluA2 amino terminal domain. The experiment in a line: FRET or BRET; kinetic FRET in a spectrofluorometer, 20°C, excitation 495 nm, emission 603 nm; 50 nM donor-labeled and 50 nM AF568-labeled GluA2 ATD pre-equilibrated (30 min DL488, 60 min FAM), then 1 µM unlabeled GluA2 ATD added; decay fitted with exponential functions.
Test [2] concerns the target EGFP-GluA2 ATD fusion protein. The experiment in a line: AUC; fluorescence-detected sedimentation velocity (FDS-SV), dilution series of labeled protein (Figure 3); 50,000 rpm, 20°C; 20 mM Na phosphate pH 7.5, 150 mM NaCl, 1 mM EDTA, 0.1 mg/mL BSA carrier; sw isotherm fitted with a monomer-dimer model; dimer to monomers.

Sequence of Alexa Fluor 568-labeled GluA2 amino terminal domain (P19491 whole entry, the tested form may be a part): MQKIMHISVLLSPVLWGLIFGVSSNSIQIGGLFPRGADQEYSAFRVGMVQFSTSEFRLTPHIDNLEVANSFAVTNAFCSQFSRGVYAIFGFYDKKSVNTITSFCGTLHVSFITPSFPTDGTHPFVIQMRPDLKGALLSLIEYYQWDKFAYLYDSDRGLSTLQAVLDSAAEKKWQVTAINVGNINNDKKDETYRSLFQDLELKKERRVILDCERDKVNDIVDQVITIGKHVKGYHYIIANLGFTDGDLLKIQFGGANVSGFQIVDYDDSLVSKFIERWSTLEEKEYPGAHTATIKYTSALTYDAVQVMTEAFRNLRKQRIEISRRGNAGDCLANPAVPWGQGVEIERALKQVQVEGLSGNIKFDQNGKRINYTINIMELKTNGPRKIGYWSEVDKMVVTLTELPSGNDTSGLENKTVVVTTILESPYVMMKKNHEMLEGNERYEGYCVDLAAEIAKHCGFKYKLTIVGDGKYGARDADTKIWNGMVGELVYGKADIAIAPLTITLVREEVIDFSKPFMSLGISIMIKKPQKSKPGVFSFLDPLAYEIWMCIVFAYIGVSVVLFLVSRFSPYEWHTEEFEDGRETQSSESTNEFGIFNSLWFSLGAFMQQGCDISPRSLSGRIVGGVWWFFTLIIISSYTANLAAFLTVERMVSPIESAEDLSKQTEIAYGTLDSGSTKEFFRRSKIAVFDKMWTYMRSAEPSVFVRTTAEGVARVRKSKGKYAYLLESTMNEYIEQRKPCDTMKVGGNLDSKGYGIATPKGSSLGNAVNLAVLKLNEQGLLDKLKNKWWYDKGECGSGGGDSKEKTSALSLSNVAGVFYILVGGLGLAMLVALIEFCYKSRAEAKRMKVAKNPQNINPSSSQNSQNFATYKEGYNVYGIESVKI

B1: EGFP-GluA2 ATD fusion protein (domain or fragment)
chain: NSIQIGGLFPRGADQEYSAFRVGMVQFSTSEFRLTPHIDNLEVANSFAVTNAFCSQFSRGVYAIFGFYDKKSVNTITSFCGTLHVSFITPSFPTDGTHPFVIQMRPDLKGALLSLIEYYQWDKFAYLYDSDRGLSTLQAVLDSAAEKKWQVTAINVGNINNDKKDETYRSLFQDLELKKERRVILDCERDKVNDIVDQVITIGKHVKGYHYIIANLGFTDGDLLKIQFGGANVSGFQIVDYDDSLVSKFIERWSTLEEKEYPGAHTATIKYTSALTYDAVQVMTEAFRNLRKQRIEISRRGNAGDCLANPAVPWGQGVEIERALKQVQVEGLSGNIKFDQNGKRINYTINIMELKTNGPRKIGYWSEVDKMVVTLTELPS
modifications: not checked
Take B1: the half life of the donor/acceptor heterodimer (single-exponential decay) in test [1] is 196 s. In test [2], the Kd turned out to be 25.4 nM and the stoichiometry N is 2.
